Measured values published in patent US20150064134A1.

How the values were obtained:
Assay in all cases: cell-based or functional assay
CaMKIδ(h) (human) = CaMKIδ(h) (human) (UniProt Q8IU85)
DDR2(h) (human) = target: T1, DDR2(h) (human) (UniProt Q16832)
T1 sequence (looked up): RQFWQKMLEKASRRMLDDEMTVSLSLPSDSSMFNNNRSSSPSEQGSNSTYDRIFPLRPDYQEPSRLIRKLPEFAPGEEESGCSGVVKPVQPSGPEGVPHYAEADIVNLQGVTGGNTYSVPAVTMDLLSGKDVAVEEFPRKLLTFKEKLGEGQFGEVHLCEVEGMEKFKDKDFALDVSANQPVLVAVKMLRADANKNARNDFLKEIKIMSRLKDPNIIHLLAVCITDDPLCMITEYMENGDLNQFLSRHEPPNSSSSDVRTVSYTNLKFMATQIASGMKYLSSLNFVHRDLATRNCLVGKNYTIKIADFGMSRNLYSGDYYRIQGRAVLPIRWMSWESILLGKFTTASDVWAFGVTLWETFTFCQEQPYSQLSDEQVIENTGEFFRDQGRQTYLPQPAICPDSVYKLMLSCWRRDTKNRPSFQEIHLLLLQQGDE

FGFR2(h) (human) = FGFR2(h) (human) (UniProt P21802)
FGFR2(h) (human), sequence (P21802 456-770 limits assumed): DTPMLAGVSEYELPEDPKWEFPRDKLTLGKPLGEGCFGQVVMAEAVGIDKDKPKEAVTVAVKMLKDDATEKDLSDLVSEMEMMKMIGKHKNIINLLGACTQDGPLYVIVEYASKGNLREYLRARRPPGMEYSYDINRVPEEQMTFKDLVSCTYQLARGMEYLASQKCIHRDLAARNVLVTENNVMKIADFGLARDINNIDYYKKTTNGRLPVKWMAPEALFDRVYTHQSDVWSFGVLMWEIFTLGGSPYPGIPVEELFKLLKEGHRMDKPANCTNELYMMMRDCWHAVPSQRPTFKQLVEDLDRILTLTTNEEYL

GRK6(h) (human) = GRK6(h) (human) (UniProt P43250)
LIMK1(h) (human) = LIMK1(h) (human) (UniProt P53667)
MSSK1(h) (human) = MSSK1(h) (human) (UniProt Q9UPE1)
Met(h) (human) = Met(h) (human) (UniProt P08581)
Met(h) (human), sequence (P08581 956-1390 limits assumed): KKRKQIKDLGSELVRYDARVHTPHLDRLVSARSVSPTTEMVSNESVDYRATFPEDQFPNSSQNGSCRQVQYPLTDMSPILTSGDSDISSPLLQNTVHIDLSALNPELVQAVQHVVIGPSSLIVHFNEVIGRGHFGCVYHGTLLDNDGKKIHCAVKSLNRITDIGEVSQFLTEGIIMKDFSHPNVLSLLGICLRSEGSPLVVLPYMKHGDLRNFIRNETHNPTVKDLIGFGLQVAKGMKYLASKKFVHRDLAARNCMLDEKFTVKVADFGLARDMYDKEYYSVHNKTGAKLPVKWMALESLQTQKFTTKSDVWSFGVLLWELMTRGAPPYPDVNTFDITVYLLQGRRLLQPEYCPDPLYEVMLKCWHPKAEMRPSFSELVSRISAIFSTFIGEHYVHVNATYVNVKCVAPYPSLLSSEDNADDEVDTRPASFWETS

NLK(h) (human) = target: T2, NLK(h) (human) (UniProt Q9UBE8)
T2 sequence (looked up): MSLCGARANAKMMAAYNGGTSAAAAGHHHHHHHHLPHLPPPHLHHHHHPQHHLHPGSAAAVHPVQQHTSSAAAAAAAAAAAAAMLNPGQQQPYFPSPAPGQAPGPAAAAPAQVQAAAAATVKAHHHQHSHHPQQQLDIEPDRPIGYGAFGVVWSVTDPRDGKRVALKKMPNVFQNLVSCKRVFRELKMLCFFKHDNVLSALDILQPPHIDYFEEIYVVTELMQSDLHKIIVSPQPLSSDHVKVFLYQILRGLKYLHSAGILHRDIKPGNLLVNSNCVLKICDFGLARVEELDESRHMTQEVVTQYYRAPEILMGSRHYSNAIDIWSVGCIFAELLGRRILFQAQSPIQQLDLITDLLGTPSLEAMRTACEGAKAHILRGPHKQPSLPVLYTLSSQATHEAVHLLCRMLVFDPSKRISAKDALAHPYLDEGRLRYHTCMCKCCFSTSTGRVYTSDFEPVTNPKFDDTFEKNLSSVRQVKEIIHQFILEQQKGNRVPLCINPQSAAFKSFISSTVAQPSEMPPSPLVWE

PKCι(h) (human) = PKCι(h) (human) (UniProt P41743)
PhKγ2(h) (human) = target: T3, PhKγ2(h) (human) (UniProt P15735)
T3 sequence (looked up): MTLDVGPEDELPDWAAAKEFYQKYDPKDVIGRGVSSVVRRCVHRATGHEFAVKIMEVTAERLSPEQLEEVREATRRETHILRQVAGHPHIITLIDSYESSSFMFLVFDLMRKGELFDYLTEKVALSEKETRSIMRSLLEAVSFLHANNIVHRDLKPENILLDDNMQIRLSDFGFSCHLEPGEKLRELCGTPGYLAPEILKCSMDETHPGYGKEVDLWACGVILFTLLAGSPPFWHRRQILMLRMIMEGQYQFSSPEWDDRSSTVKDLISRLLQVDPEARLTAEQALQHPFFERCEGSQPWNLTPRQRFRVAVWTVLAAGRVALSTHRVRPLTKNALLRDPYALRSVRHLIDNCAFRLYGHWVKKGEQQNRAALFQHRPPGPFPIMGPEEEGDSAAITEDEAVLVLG

Ros(h) (human) = Ros(h) (human) (UniProt P08922)
Ros(h) (human), sequence (P08922 1883-2347 limits assumed): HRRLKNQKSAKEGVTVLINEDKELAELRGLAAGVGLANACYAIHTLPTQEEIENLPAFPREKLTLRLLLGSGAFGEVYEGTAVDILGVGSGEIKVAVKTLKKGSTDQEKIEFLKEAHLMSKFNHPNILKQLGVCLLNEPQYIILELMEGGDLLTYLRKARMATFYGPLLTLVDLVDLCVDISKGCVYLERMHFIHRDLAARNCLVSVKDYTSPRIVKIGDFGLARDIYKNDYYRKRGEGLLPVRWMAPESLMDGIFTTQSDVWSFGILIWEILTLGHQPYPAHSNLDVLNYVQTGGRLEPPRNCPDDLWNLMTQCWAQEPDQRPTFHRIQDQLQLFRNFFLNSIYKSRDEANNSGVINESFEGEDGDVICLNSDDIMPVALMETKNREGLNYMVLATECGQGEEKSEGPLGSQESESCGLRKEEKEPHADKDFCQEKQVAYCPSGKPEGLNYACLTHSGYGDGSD

Rse(h) (human) = target: T4, Rse(h) (human) (UniProt Q06418)
T4 sequence (looked up): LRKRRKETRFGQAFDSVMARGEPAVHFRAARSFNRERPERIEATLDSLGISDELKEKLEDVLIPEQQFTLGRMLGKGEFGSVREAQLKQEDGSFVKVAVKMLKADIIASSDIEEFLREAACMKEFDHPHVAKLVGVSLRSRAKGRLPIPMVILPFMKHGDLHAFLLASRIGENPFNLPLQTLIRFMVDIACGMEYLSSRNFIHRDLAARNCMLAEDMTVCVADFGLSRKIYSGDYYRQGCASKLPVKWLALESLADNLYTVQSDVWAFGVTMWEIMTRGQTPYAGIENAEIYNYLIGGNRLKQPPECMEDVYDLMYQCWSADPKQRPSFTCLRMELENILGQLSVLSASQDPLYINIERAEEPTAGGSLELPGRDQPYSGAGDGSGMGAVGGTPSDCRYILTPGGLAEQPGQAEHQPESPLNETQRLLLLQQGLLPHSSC

Rsk2(h) (human) = Rsk2(h) (human) (UniProt P51812)
Rsk2(h) (human), sequence (P51812 whole entry): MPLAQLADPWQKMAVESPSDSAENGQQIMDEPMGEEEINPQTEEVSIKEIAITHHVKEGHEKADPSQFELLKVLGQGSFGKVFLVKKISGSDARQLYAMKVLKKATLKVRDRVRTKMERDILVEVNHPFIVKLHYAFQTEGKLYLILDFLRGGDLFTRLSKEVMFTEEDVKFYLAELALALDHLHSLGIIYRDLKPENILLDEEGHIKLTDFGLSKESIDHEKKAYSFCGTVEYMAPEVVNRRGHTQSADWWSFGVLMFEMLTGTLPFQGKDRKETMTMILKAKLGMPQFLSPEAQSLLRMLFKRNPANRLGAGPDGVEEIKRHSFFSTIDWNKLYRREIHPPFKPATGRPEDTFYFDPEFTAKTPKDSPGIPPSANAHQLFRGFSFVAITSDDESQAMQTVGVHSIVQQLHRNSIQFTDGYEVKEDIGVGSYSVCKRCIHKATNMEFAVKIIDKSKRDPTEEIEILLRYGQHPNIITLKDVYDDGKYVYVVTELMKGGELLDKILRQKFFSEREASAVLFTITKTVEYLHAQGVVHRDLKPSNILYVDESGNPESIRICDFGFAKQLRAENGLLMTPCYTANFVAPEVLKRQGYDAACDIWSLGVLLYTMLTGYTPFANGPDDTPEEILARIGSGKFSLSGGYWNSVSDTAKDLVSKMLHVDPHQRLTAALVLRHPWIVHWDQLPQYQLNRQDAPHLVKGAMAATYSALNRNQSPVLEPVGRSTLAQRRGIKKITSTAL

TAO1(h) (human) = target: T5, TAO1(h) (human) (UniProt Q7L7X3)
T5 sequence (looked up): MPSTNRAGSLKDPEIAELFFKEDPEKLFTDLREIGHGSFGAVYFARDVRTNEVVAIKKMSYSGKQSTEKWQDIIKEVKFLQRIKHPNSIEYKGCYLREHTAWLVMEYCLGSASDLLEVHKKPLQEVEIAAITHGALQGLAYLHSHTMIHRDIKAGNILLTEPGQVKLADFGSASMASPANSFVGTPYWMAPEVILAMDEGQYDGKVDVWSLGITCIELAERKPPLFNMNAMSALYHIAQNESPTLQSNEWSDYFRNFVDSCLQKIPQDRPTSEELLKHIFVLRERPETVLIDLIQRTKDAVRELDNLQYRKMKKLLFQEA

p70S6K(h) (human) = p70S6K(h) (human) (UniProt P23443)

Substance | % activity at 100 µM (CaMKIδ(h) (human)) [%] | % activity at 100 µM (DDR2(h) (human)) [%] | % activity at 100 µM (FGFR2(h) (human)) [%] | % activity at 100 µM (GRK6(h) (human)) [%] | % activity at 100 µM (LIMK1(h) (human)) [%] | % activity at 100 µM (MSSK1(h) (human)) [%] | % activity at 100 µM (Met(h) (human)) [%] | % activity at 100 µM (NLK(h) (human)) [%] | % activity at 100 µM (PKCι(h) (human)) [%] | % activity at 100 µM (PhKγ2(h) (human)) [%] | % activity at 100 µM (Ros(h) (human)) [%] | % activity at 100 µM (Rse(h) (human)) [%] | % activity at 100 µM (Rsk2(h) (human)) [%] | % activity at 100 µM (TAO1(h) (human)) [%] | % activity at 100 µM (p70S6K(h) (human)) [%]
MMI-0400 (peptide) | 17 | 95 | 18 | 141 | 92 | 75 | 62 | 90 | 46 | 38 | 99 | 89 | 38 | 73 | 33
MMI-0300 (peptide) | 10 | 94 | 14 | 147 | 88 | 77 | 65 | 87 | 68 | 46 | 95 | 88 | 51 | 82 | 35
MMI-0500 (peptide) | 0 | 79 | 12 | 174 | 87 | 22 | 27 | 19 | 7 | 16 | 150 | 63 | 14 | 24 | 3
